In patent US7834144B2 (priority 2005, dated 2010):
Values joined by “and” are separate entries in the source; they are usually repeats but may differ in a detail not shown here. Equal entries are not always repeated. Where two headings read alike, the source gives them in different places. Where no end group is shown, it is not given here. [ ]: non-standard residue; d: D form. Nab = not defined here; Nbn = not defined here

What was measured:
[1] = target: T1, PrP^Sc (Homo sapiens, UniProt P04156); conditions: vCJD 10 nL BH/asy; C17 capture, C2-AP detection
[2] = target: T1, PrP^Sc
[3] = target: T1, PrP^Sc; conditions: Table 16
[4] = target: T2, PrPc (Homo sapiens, UniProt P04156)
[5] = target: T2, PrPc; conditions: for LU, Pulldown, PrPC / pg, Pulldown, PrPC: 3M GdnSCN; for pg, Pulldown, PrPC: rPrP standard curve
[6] = target: T1, PrP^Sc; conditions: Table 15
[7] = H3PO4 (50 μl) 0.00007M, pH 4, NaOH (25 μl) 0.0031N
[8] = H3PO4 (50 μl) 0.00075M, pH 3, NaOH (25 μl) 0.031N
[9] = H3PO4 (50 μl) 0.12M, pH 2, NaOH (25 μl) 0.31N
[10] = H3PO4 (50 μl) 0.5M, pH 1, NaOH (25 μl) 3.1N
[11] = NaOH (50 μl) 0.0001M, pH 10, NaH2PO4 (20 μl) 0.0003M
[12] = NaOH (50 μl) 0.001M, pH 11, NaH2PO4 (20 μl) 0.003M
[13] = NaOH (50 μl) 0.1M, pH 12, NaH2PO4 (20 μl) 0.03M
[14] = NaOH (50 μl) 0.1M, pH 13, NaH2PO4 (20 μl) 0.3M
[15] = 70 ul plasma (70%) + 50 nl 10% normal BH

Peptoid Reagent XIIb: peptoid reagent comprising SEQ ID NO: 240, Nab-Nab-Nab-Nbn-Nab-Nbn, covalently bound to magnetic beads ([Nab][Nab][Nab][Nbn][Nab][Nbn]; reading uncertain; also: covalently bound to magnetic beads, printed as Nab-Nab-Nab-Nbn-Nab-Nbn)
Avg LU, C17 Plate [1]: 124.18 LU | Avg LU, 3F4 Beads ([2]; vCJD 0 nL BH/asy (background)): 1.62 LU | Avg LU, C17 Beads ([2]; vCJD 0 nL BH/asy (background)): 11.84 LU | S/N, 3F4 Beads ([2]; vCJD 0 nL BH/asy (background)): 1.0 | S/N, C17 Beads ([2]; vCJD 0 nL BH/asy (background)): 1.0 | Avg LU, 3F4 Beads ([2]; vCJD 1 nL BH/asy): 3.11 LU | Avg LU, C17 Beads ([2]; vCJD 1 nL BH/asy): 16.53 LU | S/N, 3F4 Beads ([2]; vCJD 1 nL BH/asy): 1.9 | S/N, C17 Beads ([2]; vCJD 1 nL BH/asy): 1.4 | Avg LU, 3F4 Beads ([2]; vCJD 5 nL BH/asy): 2.25 LU | Avg LU, C17 Beads ([2]; vCJD 5 nL BH/asy): 26.08 LU | S/N, 3F4 Beads ([2]; vCJD 5 nL BH/asy): 1.4 | S/N, C17 Beads ([2]; vCJD 5 nL BH/asy): 2.2 | S/N, 3F4 Beads ([2]; vCJD 10 nL BH/asy): 1.7 | S/N, C17 Beads ([2]; vCJD 10 nL BH/asy): 3.5 | Avg LU, 3F4 Beads ([2]; vCJD 10 nL BH/asy, 3F4 capture, C2-AP detection): 2.83 LU | Avg LU, C17 Beads ([2]; vCJD 10 nL BH/asy, C17 capture, C2-AP detection): 41.86 LU | AVE vCJD + Plasma ([3]; 50 μl GdnSCN 3M, pH 5.9, 50 μl NaHCO3, final pH 8.5): 60.5 | AVE vCJD + Plasma ([3]; 100 μl TBST, pH 7.5): 2.2 | S/N ([3]; 100 μl TBST, pH 7.5): 1 | S/N ([3]; H3PO4 0.00007M, pH 4): 1 | S/N ([3]; H3PO4 0.00075M, pH 3): 1 | S/N ([3]; H3PO4 0.12M, pH 2): 2 | S/N ([3]; H3PO4 0.5M, pH 1): 5 | AVE vCJD + Plasma [3, 7]: 7.6 | AVE vCJD + Plasma [3, 8]: 21.8 | AVE vCJD + Plasma [3, 9]: 14.6 | AVE vCJD + Plasma [3, 10]: 57.1 | S/N ([3]; NaOH 0.0001M, pH 10): 1 | S/N ([3]; NaOH 0.001M, pH 11): 2 | S/N ([3]; NaOH 0.1M, pH 12): 1 | S/N ([3]; NaOH 0.1M, pH 13): 7 | AVE vCJD + Plasma [3, 11]: 2.8 | AVE vCJD + Plasma [3, 12]: 8.8 | AVE vCJD + Plasma [3, 13]: 7.3 | AVE vCJD + Plasma [3, 14]: 36.9 | Nomal BH (RLU) ave, Pulldown ([4]; 10 nL of 10% normal BH in 50% pooled normal human plasma, XIIb-beads): 9.9 RLU | No BH (RLU) ave, Pulldown ([4]; no BH, 50% pooled normal human plasma, XIIb-beads (background)): 9.0 RLU | LU, Pulldown, PrPC [5, 15]: 25.6 LU | pg, Pulldown, PrPC [5, 15]: 7.3 pg | LU, Pulldown, PrPC ([5]; 70 ul plasma (70%)): 23 LU and 23.3 LU | pg, Pulldown, PrPC ([5]; 70 ul plasma (70%)): 6.0 pg | PrP^C bound by peptoid ([5]; plasma containing about 488 pg of PrP^C): 7 pg | S/N ([6]; 15 μl GdnSCN 3M, pH 5.9): 11 | AVE vCJD + Plasma ([6]; 15 μl GdnSCN 3M, pH 5.9, 210 μl H20, final pH 6.0): 430.4 | AVE vCJD + Plasma ([6]; 70 μl TBST, pH 7.5): 25.5 | S/N ([6]; 70 μl TBST, pH 7.5): 2 | S/N ([6]; H3PO4 0.00007M, pH 4): 1 | S/N ([6]; H3PO4 0.00075M, pH 3): 1 | S/N ([6]; H3PO4 0.12M, pH 2): 1 | S/N ([6]; H3PO4 0.5M, pH 1): 9 | AVE vCJD + Plasma [6, 7]: 27.0 | AVE vCJD + Plasma [6, 8]: 26.6 | AVE vCJD + Plasma [6, 9]: 122.5 | AVE vCJD + Plasma [6, 10]: 264.0 | S/N ([6]; NaOH 0.0001M, pH 10): 0 | S/N ([6]; NaOH 0.001M, pH 11): 1 | S/N ([6]; NaOH 0.1M, pH 12): 5 | S/N ([6]; NaOH 0.1M, pH 13): 30 | AVE vCJD + Plasma [6, 11]: 34.8 | AVE vCJD + Plasma [6, 12]: 11.8 | AVE vCJD + Plasma [6, 13]: 76.1 | AVE vCJD + Plasma [6, 14]: 458.1
